According to patent US20140271699A1 (US Dept. of Health and Human Services, published 2014):

Target: RSV F glycoprotein as expressed by RSV (on RSV-infected HEp-2 cells / on virus) (RSV (strain  for this assay), UniProt P03420 26-109; P03420 137-574)
Test: cell-based or functional assay

Chain of RSV F glycoprotein as expressed by RSV (on RSV-infected HEp-2 cells / on virus) (P03420 26-109, chain 1 of 2): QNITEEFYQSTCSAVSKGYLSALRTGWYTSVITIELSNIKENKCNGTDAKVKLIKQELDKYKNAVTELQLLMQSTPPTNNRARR
Chain of RSV F glycoprotein as expressed by RSV (on RSV-infected HEp-2 cells / on virus) (P03420 137-574, chain 2 of 2): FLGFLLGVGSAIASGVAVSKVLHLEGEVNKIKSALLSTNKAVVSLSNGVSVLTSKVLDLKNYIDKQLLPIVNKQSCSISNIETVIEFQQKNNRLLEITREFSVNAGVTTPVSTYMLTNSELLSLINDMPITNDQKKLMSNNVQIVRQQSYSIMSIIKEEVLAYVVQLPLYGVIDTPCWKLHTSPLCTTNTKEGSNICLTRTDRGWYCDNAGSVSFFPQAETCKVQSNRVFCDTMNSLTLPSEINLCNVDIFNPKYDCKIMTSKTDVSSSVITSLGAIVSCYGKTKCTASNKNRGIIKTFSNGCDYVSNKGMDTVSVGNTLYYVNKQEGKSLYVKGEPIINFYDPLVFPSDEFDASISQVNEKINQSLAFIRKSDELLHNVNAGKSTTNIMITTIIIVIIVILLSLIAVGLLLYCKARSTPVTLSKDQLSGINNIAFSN

B1: AM22 antibody (antibody, V domains shown)
VH: QVQLVQSGAEVKKPGATVKVSCKISGHTLIKLSIHWVRQAPGKGLEWMGGYEGEVDEIFYAQKFQHRLTVIADTATDTVYMELGRLTSDDTAVYFCGTLGVTVTEAGLGIDDYWGQGTLVTVSS
VL: EIVLTQSPGTLSLSPGERATLSCRASQIVSRNHLAWYQQKPGQAPRLLIFGASSRATGIPVRFSGSGSGTDFTLTINGLAPEDFAVYYCLSSDSSIFTFGPGTKVDFKR
- RSV neutralization (flow cytometry, RSV-GFP on HEp-2 cells), potency relative to palivizumab: ~50 fold
